B1: RSPH3 (parent)
chain: QRLEEQERRHREEKERRKKQQWEI
B2: TRIM35 (parent)
chain: PTCPVCKDRASPADLRTNHTLNNL

Variants of: B1
Experiment: protein stability index of a GFP-peptide fusion (GPS, HEK-293T) (PSI 1-6); higher = more stable
Settings: c terminus: a fixed tail appended
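Also: lentivirally expressed fusions sorted by FACS into six bins by GFP to DsRed ratio, PSI derived from sequencing read proportions per bin multiplied by bin number.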

| Variant | protein stability index |
| --- | --- |
| QRLEEQERRHREEKERRKKQQQEI [W22Q] | 5.15 |
| QRLEEQERRHREEKERRKKQQREI [W22R] | 5.43 |
| QRLEEQERRHRCEKERRKKQQWEI [E12C] | 4.32 |
| QRLEEQERRHREEHERRKKQQWEI [K14H] | 4.73 |
| QRLEEQERRHREETERRKKQQWEI [K14T] | 4.08 |
| QRLEEQERRHREEVERRKKQQWEI [K14V] | 4.72 |
| QRLEEQERRHREEDERRKKQQWEI [K14D] | 4.65 |
| QRLEEQERRHREEKERRKWQQWEI [K19W] | 3.89 |
| QRLEEQEFRHREEKERRKKQQWEI [R8F] | 4.28 |
| QRLEEQEQRHREEKERRKKQQWEI [R8Q] | 4.61 |
| QRLEEQEERHREEKERRKKQQWEI [R8E] | 4.95 |
| QRLEEQERRHREEKERRKKQQWRI [E23R] | 4.69 |
| QRLEEQERRHREEKERRKKQMWEI [Q21M] | 4.02 |
| QRLEEQERRWREEKERRKKQQWEI [H10W] | 4.49 |
| QRLEEQERRIREEKERRKKQQWEI [H10I] | 4.5 |
| QRLEEQERRQREEKERRKKQQWEI [H10Q] | 5.04 |
| QRLEGQERRHREEKERRKKQQWEI [E5G] | 4.53 |
| QRLEEQERRHREEKMRRKKQQWEI [E15M] | 4.02 |
| QRLEEQERRHREEKSRRKKQQWEI [E15S] | 4.58 |

| Variant | protein stability index |
| --- | --- |
| QRLEEQERRHREEKEHRKKQQWEI [R16H] | 4.77 |
| QRLEEGERRHREEKERRKKQQWEI [Q6G] | 4.59 |
| QRLEEEERRHREEKERRKKQQWEI [Q6E] | 4.91 |
| QRLEEAERRHREEKERRKKQQWEI [Q6A] | 4.9 |
| QRLEECERRHREEKERRKKQQWEI [Q6C] | 4.63 |
| QRLEEQERRHREKKERRKKQQWEI [E13K] | 4.17 |
| QRLEEQERRHREYKERRKKQQWEI [E13Y] | 3.77 |
| QILEEQERRHREEKERRKKQQWEI [R2I] | 3.83 |
| QDLEEQERRHREEKERRKKQQWEI [R2D] | 5.14 |
| QQLEEQERRHREEKERRKKQQWEI [R2Q] | 4.94 |
| QYLEEQERRHREEKERRKKQQWEI [R2Y] | 4.07 |
| QWLEEQERRHREEKERRKKQQWEI [R2W] | 3.79 |
| QNLEEQERRHREEKERRKKQQWEI [R2N] | 5.06 |
| QRLHEQERRHREEKERRKKQQWEI [E4H] | 4.18 |
| QRLDEQERRHREEKERRKKQQWEI [E4D] | 4.56 |
| QRLEEQERRHREEKERRKKEQWEI [Q20E] | 4.8 |
| QRLEEQERRHREEKERRKKSQWEI [Q20S] | 4.8 |
| QRLEEQERRHREEKERRKKAQWEI [Q20A] | 4.34 |
| QRLEEQERRHLEEKERRKKQQWEI [R11L] | 4.25 |

| Variant | protein stability index |
| --- | --- |
| QRLEEQERRHREEKERRIKQQWEI [K18I] | 4.94 |
| QRLEEQERRHREEKERRSKQQWEI [K18S] | 4.49 |
| QRLEEQERRHREEKERRRKQQWEI [K18R] | 3.87 |
| QRAEEQERRHREEKERRKKQQWEI [L3A] | 4.37 |
| QRKEEQERRHREEKERRKKQQWEI [L3K] | 4.4 |
| QRLEEQERRHREEKERRKKQQWEC [I24C] | 4.48 |
| QRLEEQERRHREEKERRKKQQWEE [I24E] | 5.04 |
| QRLEEQERRHREEKERRKKQQWEQ [I24Q] | 4.39 |
| QRLEEQERRHREEKERTKKQQWEI [R17T] | 4.62 |
| QRLEEQERRHREEKERDKKQQWEI [R17D] | 4.42 |
| QRLEEQERRHREEKERLKKQQWEI [R17L] | 5.03 |
| QRLEEQERRHREEKEREKKQQWEI [R17E] | 5.3 |
| QRLEEQERRHREEKERQKKQQWEI [R17Q] | 4.82 |
| QRLEEQLRRHREEKERRKKQQWEI [E7L] | 4.55 |
| QRLEEQFRRHREEKERRKKQQWEI [E7F] | 4.41 |
| QRLEEQQRRHREEKERRKKQQWEI [E7Q] | 3.38 |
| MRLEEQERRHREEKERRKKQQWEI [Q1M] | 4.76 |
| ARLEEQERRHREEKERRKKQQWEI [Q1A] | 4.69 |
| DRLEEQERRHREEKERRKKQQWEI [Q1D] | 4.59 |

Variants of: B2
Experiment: as above
Settings: c terminus: a fixed tail appended

| Variant | protein stability index |
| --- | --- |
| PTCPVCKDRASPADLRTNHTLNNK [L24K] | 3.37 |
| PTCPVCKDRASPADLRTNHTLNNG [L24G] | 3.83 |
| PTCPVCKDRASPADLRTNHTLNNW [L24W] | 3 |
| PTCPVCKDRASPADLRTNHTLNNY [L24Y] | 2.76 |
| PTCPVCKDRASPADLRTNHTLNNS [L24S] | 3.79 |
| PTCPVCKDRASPADLRTNHTLNNE [L24E] | 4.03 |
| PTCPVCKDRASPADLRTNHTLNNF [L24F] | 3.32 |
| PTCPVCKDRASPADLRTNHTLNNH [L24H] | 3.58 |
| PTCPVCKDRASPADLRTNHTLNNT [L24T] | 3.62 |
| PTCPVCKDRASPADLRTNHTLNNQ [L24Q] | 3.36 |
| PTCPVCKDRASPADLRTNHTLNNN [L24N] | 3.91 |
| PTCPVCKDRASPADLRTNHTLNNA [L24A] | 3.89 |
| PTCPVCKDRASPADLRTNHTLNND [L24D] | 4.37 |
| PTCPVCKDRASPADLRTNHTLNNI [L24I] | 3.5 |
| PTCPVCKDRASPADLRTNHTLNNR [L24R] | 1.82 |
| PTCPVCKDRASPADLRTNHTLNNV [L24V] | 3.56 |
| PTCPVCKDRASPADLRTNHTLNNC [L24C] | 3.94 |
| PTCPVCKDRASPADLRTNHTLNNP [L24P] | 3.83 |
| PTCPVCKDRASPADLRTNHTLNNM [L24M] | 2.8 |

| Variant | protein stability index |
| --- | --- |
| PTCPVCKDRASPADLRTNHTLNLL [N23L] | 2.28 |
| PTCPVCKDRASPADLRTNHTLNSL [N23S] | 3.18 |
| PTCPVCKDRASPADLRTNHTLNQL [N23Q] | 3.1 |
| PTCPVCKDRASPADLRTNHTLNGL [N23G] | 2.92 |
| PTCPVCKDRASPADLRTNHTLNFL [N23F] | 2.27 |
| PTCPVCKDRASPADLRTNHTLNDL [N23D] | 3.81 |
| PTCPVCKDRASPADLRTNHTLNYL [N23Y] | 1.88 |
| PTCPVCKDRASPADLRTNHTLNML [N23M] | 2.47 |
| PTCPVCKDRASPADLRTNHTLNTL [N23T] | 2.58 |
| PTCPVCKDRASPADLRTNHTLNRL [N23R] | 2.37 |
| PTCPVCKDRASPADLRTNHTLNKL [N23K] | 3.12 |
| PTCPVCKDRASPADLRTNHTLNIL [N23I] | 2.1 |
| PTCPVCKDRASPADLRTNHTLNPL [N23P] | 2.76 |
| PTCPVCKDRASPADLRTNHTLNWL [N23W] | 2.09 |
| PTCPVCKDRASPADLRTNHTLNHL [N23H] | 3.47 |
| PTCPVCKDRASPADLRTNHTLNEL [N23E] | 3.48 |
| PTCPVCKDRASPADLRTNHTLNVL [N23V] | 3.06 |
| PTCPVCKDRASPADLRTNHTLNCL [N23C] | 4.21 |
